The record followed here is patent US20140274782A1 (Stanford University, published 2014).

Common to all, as to assay: ProtoArray, GST-treated control array;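 further: human protein microarray (about 9500 recombinant proteins) incubated overnight with GST alone plus SAM cofactor as the negative control for G9a SET domain methylation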
In test [1] the target is T1, KIFC1-kinesin family member C1 (KIFC1) (human, UniProt Q9BW19 1-673).
T1 sequence (looked up): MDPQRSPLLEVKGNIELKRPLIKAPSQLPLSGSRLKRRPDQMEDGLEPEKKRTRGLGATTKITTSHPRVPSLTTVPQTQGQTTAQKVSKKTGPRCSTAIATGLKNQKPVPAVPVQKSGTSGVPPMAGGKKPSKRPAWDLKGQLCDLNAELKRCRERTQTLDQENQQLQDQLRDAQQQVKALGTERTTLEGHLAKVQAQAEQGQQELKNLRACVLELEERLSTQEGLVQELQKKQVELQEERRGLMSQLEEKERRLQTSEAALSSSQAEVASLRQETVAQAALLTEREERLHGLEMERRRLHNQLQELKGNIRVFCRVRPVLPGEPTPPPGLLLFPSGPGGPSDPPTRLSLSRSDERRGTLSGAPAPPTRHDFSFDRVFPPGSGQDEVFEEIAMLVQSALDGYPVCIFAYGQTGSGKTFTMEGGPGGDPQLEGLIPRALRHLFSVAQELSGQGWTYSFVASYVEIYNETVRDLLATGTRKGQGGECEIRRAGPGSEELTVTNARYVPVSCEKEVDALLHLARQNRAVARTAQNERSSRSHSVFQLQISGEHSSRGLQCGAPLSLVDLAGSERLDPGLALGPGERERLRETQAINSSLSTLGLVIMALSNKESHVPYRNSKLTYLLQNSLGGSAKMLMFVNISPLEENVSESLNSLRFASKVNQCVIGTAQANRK

In test [2] the target is T2, C12orf62-chromosome 12 open reading frame 62 (C12orf62) (human, UniProt Q96I36 1-57).
T2 sequence (looked up): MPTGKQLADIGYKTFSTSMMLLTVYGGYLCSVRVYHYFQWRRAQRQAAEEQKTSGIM

Test [3] deals with T3, LYRM7-Lyrm7 homolog (mouse) (LYRM7) (human, UniProt Q5U5X0 1-104).
T3 sequence (looked up): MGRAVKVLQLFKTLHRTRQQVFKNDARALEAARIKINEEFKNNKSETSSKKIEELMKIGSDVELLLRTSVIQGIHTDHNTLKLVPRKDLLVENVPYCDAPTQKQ

Test [4] has as its target N/A-cDNA clone IMAGE:4623222, partial cds (human).
Test [5] addresses SERPINB2-serpin peptidase inhibitor, clade B (ovalbumin), member 2 (SERPINB2) (human, UniProt P05120 1-415).
Test [6] has as its target SAR1B-SAR1 gene homolog B (S. cerevisiae) (SAR1B), transcript variant 2 (human, UniProt Q9Y6B6 1-198).
Test [7] concerns the target T4, GNPTAB-N-acetylglucosamine-1-phosphate transferase, alpha and beta subunits (GNPTAB) (human, UniProt Q3T906 1-1256, limits assumed).
T4 sequence (looked up): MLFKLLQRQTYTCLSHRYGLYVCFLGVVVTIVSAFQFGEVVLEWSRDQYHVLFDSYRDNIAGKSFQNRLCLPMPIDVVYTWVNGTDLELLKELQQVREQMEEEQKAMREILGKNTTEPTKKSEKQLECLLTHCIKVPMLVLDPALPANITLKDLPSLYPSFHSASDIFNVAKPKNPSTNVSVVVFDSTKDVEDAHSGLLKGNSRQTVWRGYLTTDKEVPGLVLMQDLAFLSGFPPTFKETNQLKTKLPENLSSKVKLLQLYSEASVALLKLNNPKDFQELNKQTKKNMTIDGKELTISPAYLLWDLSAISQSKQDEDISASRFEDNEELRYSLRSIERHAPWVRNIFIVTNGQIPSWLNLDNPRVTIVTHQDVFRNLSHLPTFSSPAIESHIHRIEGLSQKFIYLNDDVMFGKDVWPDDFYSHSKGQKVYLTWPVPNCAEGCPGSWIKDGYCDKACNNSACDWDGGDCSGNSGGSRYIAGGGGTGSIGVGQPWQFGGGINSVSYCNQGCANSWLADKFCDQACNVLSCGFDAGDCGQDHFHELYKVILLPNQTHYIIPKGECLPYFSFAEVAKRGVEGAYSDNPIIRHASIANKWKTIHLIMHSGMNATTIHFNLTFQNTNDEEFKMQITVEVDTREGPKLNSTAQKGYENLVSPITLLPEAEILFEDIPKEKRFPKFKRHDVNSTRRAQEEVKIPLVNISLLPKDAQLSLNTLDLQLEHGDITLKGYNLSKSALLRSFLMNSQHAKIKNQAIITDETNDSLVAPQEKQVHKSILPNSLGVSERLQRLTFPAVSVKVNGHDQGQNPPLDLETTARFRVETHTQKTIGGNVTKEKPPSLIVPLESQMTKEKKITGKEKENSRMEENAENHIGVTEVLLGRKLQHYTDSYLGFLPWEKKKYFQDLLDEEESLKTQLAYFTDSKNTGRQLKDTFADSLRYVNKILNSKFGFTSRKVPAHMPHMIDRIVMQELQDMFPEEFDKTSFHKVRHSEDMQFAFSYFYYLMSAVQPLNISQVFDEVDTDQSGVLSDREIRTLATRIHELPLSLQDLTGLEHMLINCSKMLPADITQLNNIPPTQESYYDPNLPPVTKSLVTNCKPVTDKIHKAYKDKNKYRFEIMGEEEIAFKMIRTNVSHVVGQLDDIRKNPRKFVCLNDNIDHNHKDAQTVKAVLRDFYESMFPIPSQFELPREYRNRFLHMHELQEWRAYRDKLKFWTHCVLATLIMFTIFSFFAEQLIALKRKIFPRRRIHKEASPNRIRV

Test [8] deals with T5, TGDS-TDP-glucose 4,6-dehydratase (TGDS) (human, UniProt O95455 1-350).
T5 sequence (looked up): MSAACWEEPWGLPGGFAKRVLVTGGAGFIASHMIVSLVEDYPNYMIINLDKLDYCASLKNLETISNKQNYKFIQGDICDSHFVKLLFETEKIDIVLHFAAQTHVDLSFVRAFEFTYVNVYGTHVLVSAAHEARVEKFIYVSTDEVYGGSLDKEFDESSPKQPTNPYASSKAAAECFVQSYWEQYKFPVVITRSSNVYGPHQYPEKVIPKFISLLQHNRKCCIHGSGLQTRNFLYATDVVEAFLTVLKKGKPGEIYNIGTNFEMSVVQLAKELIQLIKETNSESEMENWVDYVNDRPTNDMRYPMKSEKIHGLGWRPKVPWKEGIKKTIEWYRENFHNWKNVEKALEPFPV

Test [9] has as its target FTH1-ferritin, heavy polypeptide 1 (FTH1) (human, UniProt P02794 1-183).

SAR1B-SAR1 gene homolog B (S. cerevisiae) (SAR1B), transcript variant 2, sequence (Q9Y6B6 whole entry, change not shown): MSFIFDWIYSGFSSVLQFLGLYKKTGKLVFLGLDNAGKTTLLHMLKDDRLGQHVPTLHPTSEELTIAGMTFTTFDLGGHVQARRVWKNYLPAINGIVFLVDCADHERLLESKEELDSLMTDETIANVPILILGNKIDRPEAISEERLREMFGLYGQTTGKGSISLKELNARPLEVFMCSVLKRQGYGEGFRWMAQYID
FTH1-ferritin, heavy polypeptide 1 (FTH1), sequence (P02794 whole entry): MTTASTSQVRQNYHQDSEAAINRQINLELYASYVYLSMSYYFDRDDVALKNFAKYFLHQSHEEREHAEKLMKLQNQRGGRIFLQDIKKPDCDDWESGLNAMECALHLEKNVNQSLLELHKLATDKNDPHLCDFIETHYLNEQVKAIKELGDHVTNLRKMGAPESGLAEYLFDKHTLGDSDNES
SERPINB2-serpin peptidase inhibitor, clade B (ovalbumin), member 2 (SERPINB2), sequence (P05120 whole entry): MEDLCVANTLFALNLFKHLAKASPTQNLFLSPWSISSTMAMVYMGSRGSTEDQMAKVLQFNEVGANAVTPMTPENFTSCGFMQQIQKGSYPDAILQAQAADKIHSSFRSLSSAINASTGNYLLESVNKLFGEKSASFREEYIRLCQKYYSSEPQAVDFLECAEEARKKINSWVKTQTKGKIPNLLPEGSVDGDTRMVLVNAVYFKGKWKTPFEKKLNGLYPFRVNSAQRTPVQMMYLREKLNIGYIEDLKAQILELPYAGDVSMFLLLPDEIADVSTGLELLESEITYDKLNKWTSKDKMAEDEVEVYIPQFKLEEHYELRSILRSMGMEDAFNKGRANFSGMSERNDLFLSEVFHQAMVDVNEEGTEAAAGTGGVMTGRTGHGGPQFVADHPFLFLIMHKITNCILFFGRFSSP

B1: 3× Flag-3×MBT (designed binder)
chain: EEWSSSQPATGEKKECWSWESYLEEQKAITAPVSLFQDSQAVTHNKNGFKLGMKLEGIDPQHPSMYFILTVAEVCGYRLRLHFDGYSECHDFWVNANSPDIHPAGWFEKTGHKLQPPKGYKEEEFSWSQYLRSTRAQAAPKHLFVSQSHSPPPLGFQVGMKLEAVDRMNPSLVCVASVTDVVDSRFLVHFDNWDDTYDYWCDPSSPYIHPVGWCQKQGKPLTPPQDYPDPDNFCWEKYLEETGASAVPTWAFKVRPPHSFLVNMKLEAVDRRNPALIRVASVEDVEDHRIKIHFDGWSHGYDFWIDADHPDIHPAGWCSKTGHPLQPPLGPREPSSASPGG
notes: also called Flag-tagged 3×MBT; 3xFlag-3xMBT; not shown: made by PreScission cleavage of GST-3× Flag-3×MBT
For the molecule B1, the “GST Average SNR” value in test [1] worked out at 0.745; in test [2], 0.575; in test [3], 0.278; in test [4], 1.04; in test [5], 0.54; in [6] it was 0.558. The figures for the “GST Average SNR” value in test [7], in [8] and in test [9] were 1.15, 1.15 and -0.802, respectively.
